In patent publication US20240084042A1 (Genentech, published 2024):
Where two headings read alike, the source gives them in different places.

T1: human KLK5 (human, UniProt Q9Y337 67-293)
T1 construct: also called huKLK5; KLK5 AMC
T1 sequence: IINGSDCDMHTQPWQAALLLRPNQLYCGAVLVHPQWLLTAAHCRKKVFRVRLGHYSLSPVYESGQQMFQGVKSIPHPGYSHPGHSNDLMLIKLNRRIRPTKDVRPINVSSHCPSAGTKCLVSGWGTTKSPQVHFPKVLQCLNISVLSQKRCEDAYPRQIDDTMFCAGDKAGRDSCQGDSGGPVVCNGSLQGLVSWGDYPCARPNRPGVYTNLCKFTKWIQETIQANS

T2: cynomolgus monkey KLK5 (cynomolgus monkey, UniProt Q9Y337 67-293 (human entry))
T2 construct: also called cyno KLK5
T2 chain: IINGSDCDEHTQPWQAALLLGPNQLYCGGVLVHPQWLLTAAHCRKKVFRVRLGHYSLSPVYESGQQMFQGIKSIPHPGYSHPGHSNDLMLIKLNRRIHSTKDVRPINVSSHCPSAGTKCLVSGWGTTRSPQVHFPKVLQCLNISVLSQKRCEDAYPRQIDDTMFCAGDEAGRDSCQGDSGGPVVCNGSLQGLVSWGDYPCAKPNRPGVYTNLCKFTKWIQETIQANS


Legend:
Assay in all cases: SPR, one-armed monovalent antibody
[1] = molecular target: T1, human KLK5
[2] = molecular target: T2, cynomolgus monkey KLK5
[3] = molecular target: T2, cynomolgus monkey KLK5
[4] = molecular target: T1, human KLK5; remark: listed apart in the source

Row | Kd [1] [pM] | koff [1] [s⁻¹] | kon [1] [M⁻¹ s⁻¹] | Kd [2] [pM] | koff [2] [s⁻¹] | kon [2] [M⁻¹ s⁻¹] | Kd [3] [pM] | koff [3] [s⁻¹] | kon [3] [M⁻¹ s⁻¹] | Kd [4] [pM] | koff [4] [s⁻¹] | kon [4] [M⁻¹ s⁻¹] | Binder
1 | 16.2 | 1.6e-05 | 992000 | 17.5 | 8.44e-05 | 4.82e+06 |  |  |  |  |  |  | OA.hu.9H5.H14L4.G54A.S95Y (antibody, V domains shown, One-armed (OA) monovalent anti-KLK5 antibody with a human IgG1 Fc, with Q38E/Q39K; constant regions and dummy Fc chain not specified) VH: EVQLVESGGGLIQPGGSLRLSCAASGFSLSSYGVSWVRKAPGKGLEYVGFIGSAGFAYYASWAKSRFTISRDNSKNTLYLQMNSLRAEDTAVYYCARDDVGGGKSLDIWGQGTLVTVSS VL: DIQMTQSPSSLSASVGDRVTITCQASQSISSYLSWYQEKPGKAPKLLIYSASTLASGVPSRFSGSGSGTDFTLTISSLQPEDFATYYCHQDYTSYNVDNTFGGGTKVEIK
2 | 10.2 | 3.85e-05 | 3.79e+06 | 8.93 | 0.00011 | 1.24e+07 |  |  |  |  |  |  | OA.hu.9H5.H14L4.G54A.H89V (antibody, V domains shown, One-armed (OA) monovalent anti-KLK5 antibody with a human IgG1 Fc, with Q38E/Q39K; constant regions and dummy Fc chain not specified) VH: EVQLVESGGGLIQPGGSLRLSCAASGFSLSSYGVSWVRKAPGKGLEYVGFIGSAGFAYYASWAKSRFTISRDNSKNTLYLQMNSLRAEDTAVYYCARDDVGGGKSLDIWGQGTLVTVSS VL: DIQMTQSPSSLSASVGDRVTITCQASQSISSYLSWYQEKPGKAPKLLIYSASTLASGVPSRFSGSGSGTDFTLTISSLQPEDFATYYCVQDYTSSNVDNTFGGGTKVEIK
3 | 254 | 0.000272 | 1.07e+06 | 62.3 | 0.000697 | 1.12e+07 |  |  |  |  |  |  | OA.hu.9H5.H14L4 (antibody, V domains shown, One-armed (OA) monovalent anti-KLK5 antibody with a human IgG1 Fc, with Q38E/Q39K; constant regions and dummy Fc chain not specified) VH: EVQLVESGGGLIQPGGSLRLSCAASGFSLSSYGVSWVRKAPGKGLEYVGFIGSGGFAYYASWAKSRFTISRDNSKNTLYLQMNSLRAEDTAVYYCARDDVGGGKSLDIWGQGTLVTVSS VL: DIQMTQSPSSLSASVGDRVTITCQASQSISSYLSWYQEKPGKAPKLLIYSASTLASGVPSRFSGSGSGTDFTLTISSLQPEDFATYYCHQDYTSSNVDNTFGGGTKVEIK
4 |  |  |  |  |  |  | 371 | 0.00424 | 1.14e+07 | 102 | 0.00128 | 1.25e+07 | OA.hu.10C5.L5H28.WT (antibody, V domains shown, One-armed (OA) monovalent anti-KLK5 antibody with a human IgG1 Fc, without Q38E/Q39K; constant regions and dummy Fc chain not specified) VH: EVQLVESGGGLVQPGGSLRLSCAASGFSLSSYGVTWVRQAPGKGLEWIGYITSNYGVSYYASWAKSRSTISRDTSKNTVYLQMGSLRAEDMAVYYCARENPDYGYAYDAWGQGTTVTVSS VL: AIRMTQSPSSFSASTGDRVTITCQASESISNELSWYQQKPGKAPKLLIYYASTLASGVPSRFSGSGSGTDFTLTISSLQPEDFATYYCAQGFGSSGVENVFGGGTKVEIK
5 |  |  |  |  |  |  | 35.5 | 0.00052 | 1.46e+07 | 13.5 | 9.23e-05 | 6.84e+06 | OA.hu.10C5.N53V (antibody, V domains shown, One-armed (OA) monovalent anti-KLK5 antibody with a human IgG1 Fc, without Q38E/Q39K; constant regions and dummy Fc chain not specified) VH: EVQLVESGGGLVQPGGSLRLSCAASGFSLSSYGVTWVRQAPGKGLEWIGYITSVYGVSYYASWAKSRSTISRDTSKNTVYLQMGSLRAEDMAVYYCARENPDYGYAYDAWGQGTTVTVSS VL: AIRMTQSPSSFSASTGDRVTITCQASESISNELSWYQQKPGKAPKLLIYYASTLASGVPSRFSGSGSGTDFTLTISSLQPEDFATYYCAQGFGSSGVENVFGGGTKVEIK
6 |  |  |  |  |  |  | 8.85 | 0.000161 | 1.82e+07 | 3.82 | 2.45e-05 | 6.41e+06 | OA.hu.10C5.N53V.F92Y (antibody, V domains shown, One-armed (OA) monovalent anti-KLK5 antibody with a human IgG1 Fc, with Q38E/Q39K; constant regions and dummy Fc chain not specified) VH: EVQLVESGGGLVQPGGSLRLSCAASGFSLSSYGVTWVRKAPGKGLEWIGYITSVYGVSYYASWAKSRSTISRDTSKNTVYLQMGSLRAEDMAVYYCARENPDYGYAYDAWGQGTTVTVSS VL: AIRMTQSPSSFSASTGDRVTITCQASESISNELSWYQEKPGKAPKLLIYYASTLASGVPSRFSGSGSGTDFTLTISSLQPEDFATYYCAQGYGSSGVENVFGGGTKVEIK
7 |  |  |  |  |  |  | 16.2 | 8.88e-05 | 5.48e+06 | 2.89 | 9.88e-06 | 3.42e+06 | OA.hu.10C5.N53V.S34K (antibody, V domains shown, One-armed (OA) monovalent anti-KLK5 antibody with a human IgG1 Fc, with Q38E/Q39K; constant regions and dummy Fc chain not specified) VH: EVQLVESGGGLVQPGGSLRLSCAASGFSLSSYGVTWVRKAPGKGLEWIGYITSVYGVSYYASWAKSRSTISRDTSKNTVYLQMGSLRAEDMAVYYCARENPDYGYAYDAWGQGTTVTVSS VL: AIRMTQSPSSFSASTGDRVTITCQASESISNELKWYQEKPGKAPKLLIYYASTLASGVPSRFSGSGSGTDFTLTISSLQPEDFATYYCAQGFGSSGVENVFGGGTKVEIK
8 |  |  |  |  |  |  | 3.76 | 5.72e-05 | 1.52e+07 | 0.853 | 8.65e-06 | 1.01e+07 | OA.hu.10C5.N53V.F92Y.S95F (antibody, V domains shown, One-armed (OA) monovalent anti-KLK5 antibody with a human IgG1 Fc, with Q38E/Q39K; constant regions and dummy Fc chain not specified) VH: EVQLVESGGGLVQPGGSLRLSCAASGFSLSSYGVTWVRKAPGKGLEWIGYITSVYGVSYYASWAKSRSTISRDTSKNTVYLQMGSLRAEDMAVYYCARENPDYGYAYDAWGQGTTVTVSS VL: AIRMTQSPSSFSASTGDRVTITCQASESISNELSWYQEKPGKAPKLLIYYASTLASGVPSRFSGSGSGTDFTLTISSLQPEDFATYYCAQGYGSFGVENVFGGGTKVEIK
